Experimental data as given in patent US20210395372A1 (published 2021).

T1: human Met-Fc chimera (human, UniProt P08581 25-932)
T1 chain: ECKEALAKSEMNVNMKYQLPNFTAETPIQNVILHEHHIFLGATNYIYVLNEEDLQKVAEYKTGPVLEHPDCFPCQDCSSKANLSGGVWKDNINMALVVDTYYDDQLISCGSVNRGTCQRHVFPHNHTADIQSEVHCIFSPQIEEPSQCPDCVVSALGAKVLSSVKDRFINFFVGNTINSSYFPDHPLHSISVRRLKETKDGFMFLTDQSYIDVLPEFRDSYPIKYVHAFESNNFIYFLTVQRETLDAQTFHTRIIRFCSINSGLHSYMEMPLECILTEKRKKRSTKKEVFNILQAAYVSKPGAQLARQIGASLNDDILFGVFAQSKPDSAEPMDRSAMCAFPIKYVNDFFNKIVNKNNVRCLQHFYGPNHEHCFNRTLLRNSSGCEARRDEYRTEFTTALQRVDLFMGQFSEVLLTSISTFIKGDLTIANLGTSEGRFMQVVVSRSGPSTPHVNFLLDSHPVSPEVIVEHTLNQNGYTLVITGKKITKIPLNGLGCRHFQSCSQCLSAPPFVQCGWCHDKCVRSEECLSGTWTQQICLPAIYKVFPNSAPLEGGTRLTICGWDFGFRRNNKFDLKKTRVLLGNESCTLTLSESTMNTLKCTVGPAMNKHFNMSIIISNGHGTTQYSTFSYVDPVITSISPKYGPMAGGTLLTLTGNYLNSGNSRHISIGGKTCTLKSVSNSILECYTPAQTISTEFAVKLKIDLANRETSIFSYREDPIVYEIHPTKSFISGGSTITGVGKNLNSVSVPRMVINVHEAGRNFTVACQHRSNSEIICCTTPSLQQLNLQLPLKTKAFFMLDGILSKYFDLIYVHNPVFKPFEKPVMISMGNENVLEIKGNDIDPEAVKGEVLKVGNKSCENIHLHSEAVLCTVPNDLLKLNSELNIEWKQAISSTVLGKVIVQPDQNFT


Target: T1, human Met-Fc chimera
Assay: ELISA

Kd [nM] | Binder
0.686 | hOA-DN30-cl04H08 (antibody) light: DIVLTQSPASLAVSLGERATINCKASQSVDYDGGSYMSWYQQRPGQPPKLLIYAASNLESGVPDRFSGSGSGTDFTLTIHSLQAEDVATYYCQQSYEDPLTFGGGTKVEIKRTVAAPSVFIFPPSDEQLKSGTASVVCLLNNFYPREAKVQWKVDNALQSGNSQESVTEQDSKDSTYSLSSTLTLSKADYEKHKVYACEVTHQGLSSPVTKSFNRGEC heavy: not shown not shown
0.21 | MvDN30 (Fab, V domains shown) VH: QVQLQQPGTELVKPGASVKLSCKASGYTFTSYWIHWVKQRPGQGLEWIGEINPSSGRTNYNEKFKNKVTVTVDKSSTTAYMQLSNLTSEDSAVYYCASRGYWGQGTTLTVSS VL: DIVLTQSPASLAVSLGQRATISCKASQSVDYDGGSYMSWFQQRPGQPPKLLISAASNLESGIPARFSGSGSGTDFTLNIHPVEEEDVATYYCQQSYEDPLTFGAGTKVEIK
